T1: FcγRIIb extracellular domain with C-terminal His tag (human, UniProt P31994 43-217)
T1 construct: extracellular domain; soluble receptor expressed in FreeStyle293 cells, used as analyte in Biacore; also called FcgRIIb; 2b; not shown: His tag attached to the C terminus
T1 sequence (looked up): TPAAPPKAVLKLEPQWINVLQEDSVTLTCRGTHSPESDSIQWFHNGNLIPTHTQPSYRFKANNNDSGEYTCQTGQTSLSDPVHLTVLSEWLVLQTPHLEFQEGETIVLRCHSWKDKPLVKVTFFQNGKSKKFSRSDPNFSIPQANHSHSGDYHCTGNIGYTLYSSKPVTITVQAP


Legend:
[1] = target: T2, FcγRIa extracellular domain with C-terminal His tag (human, UniProt P12314 16-292); assay: SPR (Biacore), antibody captured on antigen peptide chip, FcγR as analyte; relative binding
T2 construct: extracellular domain; soluble receptor expressed in FreeStyle293 cells, used as analyte in Biacore; also called FcgRI; 1a; not shown: His tag attached to the C terminus

[2] = target: T1, FcγRIIb extracellular domain with …; assay: as above

T2 sequence (P12314 16-292): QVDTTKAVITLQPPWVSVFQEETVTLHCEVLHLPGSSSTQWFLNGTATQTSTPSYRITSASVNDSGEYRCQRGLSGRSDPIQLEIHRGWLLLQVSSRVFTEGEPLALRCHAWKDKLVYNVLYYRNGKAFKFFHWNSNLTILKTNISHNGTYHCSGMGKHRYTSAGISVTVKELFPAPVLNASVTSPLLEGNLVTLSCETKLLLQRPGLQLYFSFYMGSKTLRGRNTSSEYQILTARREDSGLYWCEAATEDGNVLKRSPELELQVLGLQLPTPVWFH

Row | He/Con_1a [1] | He/Con_2b [2] | Binder
1 | 104 % of control GpH7-A5/GpH7-B3/GpL16-k0 (=100) | 79.7 % of control GpH7-A5/GpH7-B3/GpL16-k0 (=100) | GpH7-A5/GpH7-B3 variant Q295_02A/GpL16-k0 (antibody, human IgG1, kappa, heterodimerized anti-glypican-3 IgG1; alteration in the GpH7-B3 chain only; also called He Ab) heavy 1: not shown heavy 2: not shown light: DIVMTQSPLSLPVTPGEPASISCQASESLVHSNRNTYLHWYLQKPGQSPQLLIYKVSNRFSGVPDRFSGSGSGTDFTLKISRVEAEDVGVYYCSQNTHVPPTFGQGTKVEIERTVAAPSVFIFPPSDEQLKSGTASVVCLLNNFYPREAKVQWKVDNALQSGNSQESVTEQDSKDSTYSLSSTLTLSKADYEKHKVYACEVTHQGLSSPVTKSFNRGEC
2 | 103 % of control GpH7-A5/GpH7-B3/GpL16-k0 (=100) | 67.5 % of control GpH7-A5/GpH7-B3/GpL16-k0 (=100) | GpH7-A5/GpH7-B3 variant Q295_05P/GpL16-k0 (antibody, human IgG1, kappa, heterodimerized anti-glypican-3 IgG1; alteration in the GpH7-B3 chain only; also called He Ab) heavy 1: not shown heavy 2: not shown light: DIVMTQSPLSLPVTPGEPASISCQASESLVHSNRNTYLHWYLQKPGQSPQLLIYKVSNRFSGVPDRFSGSGSGTDFTLKISRVEAEDVGVYYCSQNTHVPPTFGQGTKVEIERTVAAPSVFIFPPSDEQLKSGTASVVCLLNNFYPREAKVQWKVDNALQSGNSQESVTEQDSKDSTYSLSSTLTLSKADYEKHKVYACEVTHQGLSSPVTKSFNRGEC
3 | 104 % of control GpH7-A5/GpH7-B3/GpL16-k0 (=100) | 75.7 % of control GpH7-A5/GpH7-B3/GpL16-k0 (=100) | GpH7-A5/GpH7-B3 variant Q295_03V/GpL16-k0 (antibody, human IgG1, kappa, heterodimerized anti-glypican-3 IgG1; alteration in the GpH7-B3 chain only; also called He Ab) heavy 1: not shown heavy 2: not shown light: DIVMTQSPLSLPVTPGEPASISCQASESLVHSNRNTYLHWYLQKPGQSPQLLIYKVSNRFSGVPDRFSGSGSGTDFTLKISRVEAEDVGVYYCSQNTHVPPTFGQGTKVEIERTVAAPSVFIFPPSDEQLKSGTASVVCLLNNFYPREAKVQWKVDNALQSGNSQESVTEQDSKDSTYSLSSTLTLSKADYEKHKVYACEVTHQGLSSPVTKSFNRGEC
4 | 102 % of control GpH7-A5/GpH7-B3/GpL16-k0 (=100) | 65.4 % of control GpH7-A5/GpH7-B3/GpL16-k0 (=100) | GpH7-A5/GpH7-B3 variant Q295_15Y/GpL16-k0 (antibody, human IgG1, kappa, heterodimerized anti-glypican-3 IgG1; alteration in the GpH7-B3 chain only; also called He Ab) heavy 1: not shown heavy 2: not shown light: DIVMTQSPLSLPVTPGEPASISCQASESLVHSNRNTYLHWYLQKPGQSPQLLIYKVSNRFSGVPDRFSGSGSGTDFTLKISRVEAEDVGVYYCSQNTHVPPTFGQGTKVEIERTVAAPSVFIFPPSDEQLKSGTASVVCLLNNFYPREAKVQWKVDNALQSGNSQESVTEQDSKDSTYSLSSTLTLSKADYEKHKVYACEVTHQGLSSPVTKSFNRGEC
5 | 105 % of control GpH7-A5/GpH7-B3/GpL16-k0 (=100) | 77.4 % of control GpH7-A5/GpH7-B3/GpL16-k0 (=100) | GpH7-A5/GpH7-B3 variant S324_10E/GpL16-k0 (antibody, human IgG1, kappa, heterodimerized anti-glypican-3 IgG1; alteration in the GpH7-B3 chain only; also called He Ab) heavy 1: not shown heavy 2: not shown light: DIVMTQSPLSLPVTPGEPASISCQASESLVHSNRNTYLHWYLQKPGQSPQLLIYKVSNRFSGVPDRFSGSGSGTDFTLKISRVEAEDVGVYYCSQNTHVPPTFGQGTKVEIERTVAAPSVFIFPPSDEQLKSGTASVVCLLNNFYPREAKVQWKVDNALQSGNSQESVTEQDSKDSTYSLSSTLTLSKADYEKHKVYACEVTHQGLSSPVTKSFNRGEC
6 | 100 % of control GpH7-A5/GpH7-B3/GpL16-k0 (=100) | 65.2 % of control GpH7-A5/GpH7-B3/GpL16-k0 (=100) | GpH7-A5/GpH7-B3 variant Q295_12R/GpL16-k0 (antibody, human IgG1, kappa, heterodimerized anti-glypican-3 IgG1; alteration in the GpH7-B3 chain only; also called He Ab) heavy 1: not shown heavy 2: not shown light: DIVMTQSPLSLPVTPGEPASISCQASESLVHSNRNTYLHWYLQKPGQSPQLLIYKVSNRFSGVPDRFSGSGSGTDFTLKISRVEAEDVGVYYCSQNTHVPPTFGQGTKVEIERTVAAPSVFIFPPSDEQLKSGTASVVCLLNNFYPREAKVQWKVDNALQSGNSQESVTEQDSKDSTYSLSSTLTLSKADYEKHKVYACEVTHQGLSSPVTKSFNRGEC
7 | 102 % of control GpH7-A5/GpH7-B3/GpL16-k0 (=100) | 64.7 % of control GpH7-A5/GpH7-B3/GpL16-k0 (=100) | GpH7-A5/GpH7-B3 variant Q295_04F/GpL16-k0 (antibody, human IgG1, kappa, heterodimerized anti-glypican-3 IgG1; alteration in the GpH7-B3 chain only; also called He Ab) heavy 1: not shown heavy 2: not shown light: DIVMTQSPLSLPVTPGEPASISCQASESLVHSNRNTYLHWYLQKPGQSPQLLIYKVSNRFSGVPDRFSGSGSGTDFTLKISRVEAEDVGVYYCSQNTHVPPTFGQGTKVEIERTVAAPSVFIFPPSDEQLKSGTASVVCLLNNFYPREAKVQWKVDNALQSGNSQESVTEQDSKDSTYSLSSTLTLSKADYEKHKVYACEVTHQGLSSPVTKSFNRGEC
8 | 102 % of control GpH7-A5/GpH7-B3/GpL16-k0 (=100) | 63.1 % of control GpH7-A5/GpH7-B3/GpL16-k0 (=100) | GpH7-A5/GpH7-B3 variant S324_12R/GpL16-k0 (antibody, human IgG1, kappa, heterodimerized anti-glypican-3 IgG1; alteration in the GpH7-B3 chain only; also called He Ab) heavy 1: not shown heavy 2: not shown light: DIVMTQSPLSLPVTPGEPASISCQASESLVHSNRNTYLHWYLQKPGQSPQLLIYKVSNRFSGVPDRFSGSGSGTDFTLKISRVEAEDVGVYYCSQNTHVPPTFGQGTKVEIERTVAAPSVFIFPPSDEQLKSGTASVVCLLNNFYPREAKVQWKVDNALQSGNSQESVTEQDSKDSTYSLSSTLTLSKADYEKHKVYACEVTHQGLSSPVTKSFNRGEC
9 | 104 % of control GpH7-A5/GpH7-B3/GpL16-k0 (=100) | 85.8 % of control GpH7-A5/GpH7-B3/GpL16-k0 (=100) | GpH7-A5/GpH7-B3 variant S324_09D/GpL16-k0 (antibody, human IgG1, kappa, heterodimerized anti-glypican-3 IgG1; alteration in the GpH7-B3 chain only; also called He Ab) heavy 1: not shown heavy 2: not shown light: DIVMTQSPLSLPVTPGEPASISCQASESLVHSNRNTYLHWYLQKPGQSPQLLIYKVSNRFSGVPDRFSGSGSGTDFTLKISRVEAEDVGVYYCSQNTHVPPTFGQGTKVEIERTVAAPSVFIFPPSDEQLKSGTASVVCLLNNFYPREAKVQWKVDNALQSGNSQESVTEQDSKDSTYSLSSTLTLSKADYEKHKVYACEVTHQGLSSPVTKSFNRGEC
10 | 102 % of control GpH7-A5/GpH7-B3/GpL16-k0 (=100) | 56.9 % of control GpH7-A5/GpH7-B3/GpL16-k0 (=100) | GpH7-A5/GpH7-B3 variant Q295_13S/GpL16-k0 (antibody, human IgG1, kappa, heterodimerized anti-glypican-3 IgG1; alteration in the GpH7-B3 chain only; also called He Ab) heavy 1: not shown heavy 2: not shown light: DIVMTQSPLSLPVTPGEPASISCQASESLVHSNRNTYLHWYLQKPGQSPQLLIYKVSNRFSGVPDRFSGSGSGTDFTLKISRVEAEDVGVYYCSQNTHVPPTFGQGTKVEIERTVAAPSVFIFPPSDEQLKSGTASVVCLLNNFYPREAKVQWKVDNALQSGNSQESVTEQDSKDSTYSLSSTLTLSKADYEKHKVYACEVTHQGLSSPVTKSFNRGEC
